# Target: the molecule itself
# Assay: SEC
protein,measurement,value
"ArdB from the E. coli K12 CP4-6 prophage (yafX) (natural protein, E. coli K12/CP4-6 prophage, UniProt P75676 1-152, looked up) MTTQTQHDLAPANQPEFELTVTPVPDEQRIDFWPQYFGAIPQWLLLEPHIFAWMDRFCEGYSGGIWSFYTLSNGGAFMSPEPDNDETWRLFNCLNGNDAQMSAEAAGIAVCLIAYSHHACRTECDAMTAHYYRLREYAMQHPEAHAILRIID",stoichiometry N,2
